Measured values reported in US20090028881A1 (ROCHE PALO ALTO, published 2009).

Target: T1, human CCR5 (wild-type) (human, UniProt P51681 1-352)
T1 construct: also called wild-type CCR5
Test: alanine scanning epitope mapping
Text: Epitope binding is investigated by using alanine scanning according to the method described by W. C. Olson et al. (J. Virol. (1999) 73:4145-55) for epitope mapping. […] 100% epitope binding is defined for wild-type CCR5. A further preferred anti-CCR5 antibody binds to the same epitope as antibody C binds.

T1 sequence (P51681 whole entry): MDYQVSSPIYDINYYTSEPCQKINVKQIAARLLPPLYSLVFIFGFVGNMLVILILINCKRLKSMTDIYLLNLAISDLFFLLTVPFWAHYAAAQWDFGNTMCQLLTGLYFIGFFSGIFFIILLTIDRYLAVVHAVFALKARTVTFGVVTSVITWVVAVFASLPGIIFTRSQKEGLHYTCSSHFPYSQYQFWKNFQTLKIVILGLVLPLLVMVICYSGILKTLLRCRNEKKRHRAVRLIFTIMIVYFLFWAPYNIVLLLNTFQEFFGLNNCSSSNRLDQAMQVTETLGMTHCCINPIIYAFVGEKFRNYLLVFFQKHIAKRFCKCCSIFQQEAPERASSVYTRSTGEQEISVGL

B1: <CCR5>Pz03.1C5 (antibody, V domains shown)
VH: QVQLKQSGPGLVRPSQSLSITCTVSGFPLGIFGVHWVRQSPGKGLEWLGVIWKGGNTDYNAAFMSRLRITKDNSKSQVFFRMNSLQTDDTAIYYCAKVNLADAMDYWGQGTSVIVSS
VL: DIQMTQSPASLSASVGETVTITCRASGNIHGYLAWFQQKQGKSPQLLVYNTKTLAEGVPSRFSGSGSGTQFSLKINSLQPEDFGNYYCQHHYDLPRTFGGGTKLEIKR
notes: also called Antibody C; m<CCR5>Pz03.1C5
- binding result: binds
